# Experimental data taken from patent US11921118B2, “Methods for proteome labeling” (The Board of Trustees of the Leland Stanford Junior …, priority 2018, dated 2024).
# How the values were obtained:
# HEK293T cells = assay: Selectivity of ncAA activation over canonical amino acid, in-gel AF647 fluorescence fitted to Michaelis-Menten kinetics; type: cell-based, human; settings: equimolar concentrations of the two amino acids; serum-containing media, 24 h
# From the text: FIGS. 2A-2E: Identification and characterization of TyrRS and PheRS variants for bioorthogonal labeling of mammalian proteomes with AzY and AzF. FIG. 2A: A single substitution (Y43G) in the amino acid binding site of yeast tyrosyl-tRNA synthetase (ScTyrY43G) enables charging of the azido tyrosine analog AzY onto tRNA^TYr before incorporation into nascent proteins of host cells. FIG. 2B: A single substitution (T413G) in the amino binding site of human or mouse phenylalanyl-tRNA synthetase (MmPheT413G) enables charging of the azido phenylalanine analog AzF onto tRNA^Phe. FIG. 2C: In-gel fluorescence image of Alexa Fluor 647 labeling corresponding to AzY or AzF incorporation into mammalian cell proteomes. ‘WT’: no exogenous amino acid added to media. ‘CP1 switch’: an E. coli TyrRS with the human CP1 peptide engrafted. ‘Mj TyRS’: TyrRS from the species M. jannaschii, without its accompanying tRNA. FIG. 2D: High selectivity of ScTyrY43G for AzY over Tyr. In-gel Alexa Fluor 647 fluorescence and coomassie blue staining of whole gel lanes were quantified to assess the degree of proteome labeling normalized to total protein content. […]
# Copper-free reaction of DIBO-Alexa Fluor 647 with click-labeled cell lysates for in-gel fluorescence. […] Protein concentrations were measured with a BCA Protein Assay Kit (Pierce) to ensure equal loading across gel wells (˜23 μg). […]
# HEK293T = assay: Proteome labeling after transient transfection and AzY/AzF incubation, DIBO-Alexa Fluor 647 in-gel fluorescence; type: cell-based, human; settings: transient transfection, 2 mM AzY or AzF
# Procedure: (§1) Cells were lysed, pre-treated with iodoacetamide (IAM) to block background thiol-yne additions (25), and treated with dibenzocyclooctyne (DIBO)-Alexa Fluor 647 dye for copper-free, strain-promoted azide-alkyne cycloaddition.
# (§2) Cell transfection, click amino acid labeling, and selection of stably transfected B16-F10 cells. Unless otherwise noted, cells were transiently transfected with Lipofectamine 3000 (Invitrogen) 24 hours prior to 4-Azido-L-phenylalanine (AzF, Chem-Implex) or 3-Azido-L-tyrosine (AzY, Watanabe Chemical Industries) labeling. For initial assessment of labeling across mammalian cell lines, transfected cells were incubated with 2 mM of AzF, AzY, tyrosine, or phenylalanine for 30 hours in 12-well plates prior to lysis. To characterize enzyme selectivity and rate of substrate activation, transfected HEK293T cells were incubated with varying amounts of endogenous and non-canonical amino acids for 24 hours in 12-well plates prior to lysis. For affinity enrichment prior to shotgun mass spectrometry, transfected HEK293T cells were incubated with 125 μM of endogenous and non-canonical amino acids for 24 hours in 10 cm dishes prior to lysis. B16-F10 cells were transfected with mutant synthetases in the Piggybac vector PB513B-1 for 72 hours prior to puromycin selection at 10 μg/ml for 10 days.
# (§3) Copper-free reaction of DIBO-Alexa Fluor 647 with click-labeled cell lysates for in-gel fluorescence. After washing in PBS twice, cells were lysed 1% SDS in PBS with EDTA-free protease inhibitor (Roche). […] Protein concentrations were measured with a BCA Protein Assay Kit (Pierce) to ensure equal loading across gel wells (˜23 μg). […] Colloidally stained gels were imaged in the 800-nm channel of an Odyssey CLx (LI-COR), where no bleed-through of the Alexa Fluor 647 signal was detected. Quantification of signal intensities of labeled proteomes from each gel lane were analyzed in ImageJ as before, but with slight modifications (36). […] Instead, the mean and standard deviations were calculated from biological triplicates of whole gel lanes, less the dye front.
# CHO = assay: as above; type: cell-based, hamster; settings: transient transfection, 2 mM AzY or AzF
# Procedure: as §1, §2, §3
# B16-F10 = assay: as above; type: cell-based, mouse; settings: transient transfection, 2 mM AzY or AzF
# Procedure: as §1, §2, §3
Molecule,activation of AzY faster than Tyr (HEK293T cells),proteome labeling (HEK293T),proteome labeling (CHO),proteome labeling (B16-F10),activation of AzF faster than Phe (HEK293T cells)
"ScTyrY43G: yeast tyrosyl-tRNA synthetase with Y43G substitution, charges AzY onto tRNA-Tyr; SEQ ID NO:4 (protein) MSSAATVDPNEAFGLITKNLQEVLNPQIIKDVLEVQKRHLKLGWGTAPTGRPHCGYFVPMTKLADFLKAGCEVTVLLADLHAFLDNMKAPLEVVNYRAKYYELTIKAILRSINVPIEKLKFVVGSSYQLTPDYTMDIFRLSNIVSQNDAKRAGADVVKQVANPLLSGLIYPLMQALDEQFLDVDCQFGGVDQRKIFVLAEENLPSLGYKKRAHLMNPMVPGLAQGGKMSASDPNSKIDLLEEPKQVKKKINSAFCSPGNVEENGLLSFVQYVIAPIQELKFGTNHFEFFIDRPEKFGGPITYKSFEEMKLAFKEEKLSPPDLKIGVADAINELLEPIRQEFADNKEFQEASEKGYPVATPQKSKKAKKPKNKGTKYPGATKTNEIATKLEETKL",~250 fold,strong labeling,strong labeling,strong labeling,
HsPheT413G: human phenylalanyl-tRNA synthetase with T413G substitution; SEQ ID NO:6 (protein) MADGQVAELLLRRLEASDGGLDSAELAAELGMEHQAVVGAVKSLQALGEVIEAELRSTKHWELTAEGEEIAREGSHEARVFRSIPPEGLAQSELMRLPSGKVGFSKAMSNKWIRVDKSAADGPRVFRVVDSMEDEVQRRLQLVRGGQAEKLGEKERSELRKRKLLAEVTLKTYWVSKGSAFSTSISKQETELSPEMISSGSWRDRPFKPYNFLAHGVLPDSGHLHPLLKVRSQFRQIFLEMGFTEMPTDNFIESSFWNFDALFQPQQHPARDQHDTFFLRDPAEALQLPMDYVQRVKRTHSQGGYGSQGYKYNWKLDEARKNLLRTHTTSASARALYRLAQKKPFTPVKYFSIDRVFRNETLDATHLAEFHQIEGVVADHGLTLGHLMGVLREFFTKLGITQLRFKPAYNPYGEPSMEVFSYHQGLKKWVEVGNSGVFRPEMLLPMGLPENVSVIAWGLSLERPTMIKYGINNIRELVGHKVNLQMVYDSPLCRLDAEPRPPPTQEAA,,strong labeling,strong labeling,strong labeling,
"MmPheT413G: mouse phenylalanyl-tRNA synthetase with T413G substitution, charges AzF onto tRNA-Phe; SEQ ID NO:5 (protein) MADNPVLELLLRRLEVADGGLDSAELATQLGVEHQAVVGAVKSLQALGEVIEAELRSTKCWELTTEGEEIAREGSHEARVFRSIPLEGLVQSELMHLPSGKVGFSKAMSNKWIRVDKSAADGPRVFRVVDSIEDEVQKRLQLVQAGQAEKLAEKERNELRKRKLLTEVILKTYWVSKGKAFSTSVSKQEAELSPEMISSGSWRDRPFKPYNFSARGVLPDSGHLHPLLKVRSQFRQIFLEMGFTEMPTDNFIESSFWNFDALFQPQQHPARDQHDTFFLRDPAEALQLPMGYVQRVKRTHSQGGYGSQGYKYTWKLEEARKNLLRTHTTAASARALYQLAQKKPFTPAKYFSIDRVFRNETLDATHLAEFHQIEGVIADHGLTLGHLMGVLREFFTKLGITQLRFKPAYNPYGEPSMEVFSYHQGLKKWVEVGNSGVFRPEMLLPMGLPENVSVIAWGLSLERPTMIKYGINNIRELVGHKVNLQMVYDSPVCRLDIEPRSSKTQEAA",,strong labeling,strong labeling,strong labeling,over 11 fold
